One substance from patent US20210060169A1 can be followed below.

Where only a bound is given, the exact number is not on record here.

The assay deals with human IL-2Rαβγ (human) (UniProt P01589). Nature of the assay: cell-based or functional assay.
Chain of human IL-2Rαβγ (human) (P01589 22-272, chain 1 of 3): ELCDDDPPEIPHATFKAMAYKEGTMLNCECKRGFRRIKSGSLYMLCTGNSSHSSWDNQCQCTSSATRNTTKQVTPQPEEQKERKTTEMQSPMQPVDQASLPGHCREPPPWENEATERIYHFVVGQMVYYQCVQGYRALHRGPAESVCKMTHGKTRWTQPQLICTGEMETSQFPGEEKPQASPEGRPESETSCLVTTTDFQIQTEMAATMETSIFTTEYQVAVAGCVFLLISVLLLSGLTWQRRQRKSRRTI
Chain of human IL-2Rαβγ (human) (P14784 27-551, chain 2 of 3, further chain): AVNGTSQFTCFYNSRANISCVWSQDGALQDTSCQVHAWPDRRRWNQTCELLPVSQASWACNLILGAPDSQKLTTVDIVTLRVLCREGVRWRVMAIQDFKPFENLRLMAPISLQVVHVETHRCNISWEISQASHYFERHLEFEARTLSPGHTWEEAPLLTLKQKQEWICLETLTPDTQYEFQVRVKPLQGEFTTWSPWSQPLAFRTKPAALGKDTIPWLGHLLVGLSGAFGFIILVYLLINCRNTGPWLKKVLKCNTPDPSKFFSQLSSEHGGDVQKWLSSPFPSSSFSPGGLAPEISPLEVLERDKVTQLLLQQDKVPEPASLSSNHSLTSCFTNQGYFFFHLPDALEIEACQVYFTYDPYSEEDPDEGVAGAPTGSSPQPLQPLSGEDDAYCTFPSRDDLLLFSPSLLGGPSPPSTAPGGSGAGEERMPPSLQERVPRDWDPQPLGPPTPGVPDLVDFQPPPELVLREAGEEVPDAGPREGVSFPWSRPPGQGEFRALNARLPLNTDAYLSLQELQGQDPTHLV
Chain of human IL-2Rαβγ (human) (P31785 23-369, chain 3 of 3, further chain): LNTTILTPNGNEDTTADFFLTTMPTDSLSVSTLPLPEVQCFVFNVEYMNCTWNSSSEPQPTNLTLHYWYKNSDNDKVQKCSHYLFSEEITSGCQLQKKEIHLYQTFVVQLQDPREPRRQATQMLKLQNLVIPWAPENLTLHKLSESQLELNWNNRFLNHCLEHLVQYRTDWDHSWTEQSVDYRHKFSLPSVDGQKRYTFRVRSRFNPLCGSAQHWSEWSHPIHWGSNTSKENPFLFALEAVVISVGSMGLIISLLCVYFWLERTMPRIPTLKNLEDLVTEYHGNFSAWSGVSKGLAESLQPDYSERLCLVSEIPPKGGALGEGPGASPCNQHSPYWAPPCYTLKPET

Chain of 8His-S4(oAzZK) (P60568 other isoform, or with tags, fused parts or gaps): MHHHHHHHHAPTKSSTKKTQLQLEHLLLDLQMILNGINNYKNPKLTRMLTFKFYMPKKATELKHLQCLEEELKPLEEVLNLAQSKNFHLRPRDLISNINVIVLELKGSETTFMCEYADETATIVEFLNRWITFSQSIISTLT

With “8His-S4(oAzZK) (from UniProt P60568 25-153) (ligand)”, the Standardized EC50 ratio value was less than 5.
